# B1: MUC5AC C-terminal recombinant peptide (AA5568-AA5654) (domain or fragment, human, UniProt P98088 5568-5654, looked up)
# chain: YSLEGNTVEHRCQCCQELRTSLRNVTLHCTDGSSRAFSYTEVEECGCMGRRCPAPGDTQHSEEAEPEPSQEAESGSWERGVPVSPMH
# notes: MUC5AC mucin, human, C-terminal recombinant peptide, residues 5568-5654; also called C-terminal MUC5AC; C-terminal peptide of MUC5AC; source: bought: Mybiosource, #MBS2009104
# Legend:
# [1] = target: purified human airway mucins; assay: ELISA; purified mucins coated on NUNC Maxisorp plate overnight at 4 °C, 20 μg/mL, carbonate-bicarbonate buffer pH 9.6; FLAG-ITLN-1 10 μg/mL for 2 hours in binding buffer B (TBS, 3 mM CaCl3, 1% BSA, 0.05% Tween-20, 50 mM EDTA); anti-FLAG HRP, absorbance 450 nm; also with galactose 100 mM, heparin 150 μg/mL or dextran sulfate 150 μg/mL
# [2] = target: T1, FLAG-tagged recombinant ITLN-1 (human, UniProt Q8WWA0 19-298); assay: ELISA; C-terminal recombinant peptide coated on NUNC Maxisorp plate overnight at 4 °C, 20 μg/mL, carbonate-bicarbonate buffer pH 9.6; FLAG-ITLN-1 10 μg/mL for 2 hours in binding buffer A (TBS, 3 mM CaCl3, 1% BSA, 0.05% Tween-20); anti-FLAG HRP, absorbance 450 nm; also with heparin 150 μg/mL; settings: both partners purified
# T1 construct: intelectin-1 (ITLN-1), human, recombinant; also called intelectin-1; recombinant human ITLN-1 protein; source: bought: Sigma, SRP8047
percent decrease of binding with dextran sulfate (150 μg/mL) [1] [%],percent decrease of binding with heparin (150 μg/mL) [1] [%],binding result [2],Molecule
74,51.9,,FLAG-tagged recombinant ITLN-1 (from UniProt Q8WWA0 19-298) (natural protein)
,,binds,B1
